Article PMC3406927

What was measured:
[1] = biological target: TLR5-N14VLR (zebrafish, Danio rerio | hagfish) (UniProt B3DIN1); assay: fluorescence polarisation
[2] = biological target: drTLR5-ECD (zebrafish, Danio rerio); assay: fluorescence polarisation

## CBLB502-ΔD0 (from UniProt Q06971 1-505) (ligand)
[1]
  fold change in binding affinity (against CBLB502): 2 to 3 fold
[2]
  fold change in binding affinity (against CBLB502): 2 to 3 fold
